# Positions count from the first letter of the chain named.
# B1: 2D3-35GS-2D3 (VHH)
# chain: EVQLVESGGSLVQPGGSLRLSCAASGFTFDDYAMSWVRQVPGKGLEWVSSINWSGTHTDYADSVKGRFTISRNNANNTLYLQMNSLKSEDTAVYYCAKNWRDAGTTWFEKSGSAGQGTQVTVSSGGGGSGGGGSGGGGSGGGGSGGGGSGGGGSGGGGSEVQLVESGGSLVQPGGSLRLSCAASGFTFDDYAMSWVRQVPGKGLEWVSSINWSGTHTDYADSVKGRFTISRNNANNTLYLQMNSLKSEDTAVYYCAKNWRDAGTTWFEKSGSAGQGTQVTVSS
# notes: bivalent 2D3, 35GS linker; C-term myc-His6 tag
# B2: 2C1 (VHH)
# VHH: EVQLVESGGGLVQPGGSLRLSCVASGFSLDDYGMTWVRQAPGKGLEWVSSINWSGTHTDYTDSVKGRFTISRDNAKNTLFLQMNSLTPEDTAVYYCNQGWKIIPTDRRGHGTQVTVSS
# notes: C-term myc-His6 tag
# B3: 2B3 (VHH)
# VHH: B2 VHH with Y60C, T61A
# notes: C-term myc-His6 tag
# B4: 2H1 (VHH)
# VHH: B2 VHH with T61A, K65R, T69V, T87S
# notes: C-term myc-His6 tag
# B5: 2C2 (VHH)
# VHH: B2 VHH with G33A, T61A, K76R, V93I, I103L
# notes: C-term myc-His6 tag
# B6: 2F4 (VHH)
# VHH: B2 VHH with T61A, T87R, P88S, I103V
# notes: C-term myc-His6 tag
# B7: 2F1 (VHH)
# VHH: B2 VHH with G44E, V48I, T61A, I103V, T105M
# notes: C-term myc-His6 tag
# B8: 2G2 (VHH)
# VHH: B2 VHH with S63P, S85N, Q98R, I103V, R107L, R108G
# notes: C-term myc-His6 tag
# B9: 2D1 (VHH)
# VHH: B2 VHH with T61A, T87S, Q98R, I103L, D106N, R108G, G109S
# notes: C-term myc-His6 tag
# B10: 2D5 (VHH)
# VHH: B2 VHH with T61A, T87R, P88S, I103V, R108G
# notes: C-term myc-His6 tag
# B11: 2B4 (VHH)
# VHH: B2 VHH with A24G, G33A, T61A, T87S, I103R, D106I, R107P, R108M
# notes: C-term myc-His6 tag
# B12: 2H4 (VHH)
# VHH: EVQLVESGGSLVQPGGSLRLSCAASGFTFDDYAMTWVRQAPGKGLEWVSSINWSGTHTDYTDSVKGRFTISRNNANNTLYLQMNSLKSEDTAVYYCAKNWGDAGTTWFEKSGSAGQGTQVTVSS
# notes: C-term myc-His6 tag
# B13: 2F5 (VHH)
# VHH: B12 VHH with Q13P, T35S
# notes: C-term myc-His6 tag
# B14: 2D4 (VHH)
# VHH: B12 VHH with T61A, E89D, Q116P
# notes: C-term myc-His6 tag
# B15: 2B1 (VHH)
# VHH: B12 VHH with E89D, Q116P
# notes: C-term myc-His6 tag
# B16: 2F3 (VHH)
# VHH: B12 VHH with D62G, E89D, Q116P
# notes: C-term myc-His6 tag
# B17: 2H3 (VHH)
# VHH: B2 VHH with T61A
# notes: C-term myc-His6 tag
# B18: 27G8 (VHH)
# VHH: B2 VHH with T61A, I103L, T105A, D106E
# notes: C-term myc-His6 tag
# B19: 17E4 (VHH)
# VHH: B2 VHH with T61A, T69V, T87S
# notes: C-term myc-His6 tag
# B20: 15C11 (VHH)
# VHH: B2 VHH with T61A, I103L, T105A, D106E, Q113P
# notes: C-term myc-His6 tag
# B21: 15G8 (VHH)
# VHH: B2 VHH with R19K, S54N, T61A, D62Y, D90N, I103L, T105A, D106E
# notes: C-term myc-His6 tag
# B22: 17H3 (VHH)
# VHH: B2 VHH with V5M, T61A, T87R, P88S, I103V, R108G
# notes: C-term myc-His6 tag
# B23: 17A2 (VHH)
# VHH: B2 VHH with G33A, T61A, T87S, Q98K, I102V, I103W, R108G, G109T
# notes: C-term myc-His6 tag
# B24: 17D2 (VHH)
# VHH: B2 VHH with T61A, T87R, P88S, I103V, R108G, G109S
# notes: C-term myc-His6 tag
# B25: 2E3 (VHH)
# VHH: B2 VHH with T61A, T87S, I103L, D106N, R108G, G109S
# notes: C-term myc-His6 tag
# B26: 13B10 (VHH)
# VHH: B2 VHH with L45F, T61A, T87S, I103L, D106N, R108G, G109S
# notes: C-term myc-His6 tag
# B27: 38C6 (VHH)
# VHH: B2 VHH with A24G, G33A, T61A, T87S, I103R, D106I, R107P, R108M
# notes: C-term myc-His6 tag
# B28: 17H4 (VHH)
# VHH: EVQLVESGGGLVQPGGSLRLSCVASGFSLINYAMTWVRQAPGKGLEWVSSINWSGTHTDYADSVKGRFTISRDNAKNTLFLHMNNLSPEDTAVYYCGQGWKIHPADRGGHGTQVTVSS
# notes: C-term myc-His6 tag
# B29: 29H2 (VHH)
# VHH: B2 VHH with T61A, S85N
# notes: C-term myc-His6 tag
# B30: 15C5 (VHH)
# VHH: B2 VHH with R19K, S54N, G55V, T61A, D62Y
# notes: C-term myc-His6 tag
# B31: 17B8 (VHH)
# VHH: B2 VHH with T61A, I103L, T105A, D106E
# notes: C-term myc-His6 tag
# B32: 15D1 (VHH)
# VHH: B2 VHH with G33A, T61A, T87N, I102V, I103W, R108G, G109T
# notes: C-term myc-His6 tag
# B33: 118N121_A1_4_OK/1-127 (VHH)
# VHH: EVQLVESGGGFVQTGGSPRLSCAASGRSFSEYAAAWFRQSPGKERDLVAGIMWDGRSLFYADSVKGRFTISRDNAKNTLHLQMNSLKPEDTAVYYCAYHKTPYTTLELNRPHAFGSWGQGTQVTVSS
# notes: C-term myc-His6 tag
# B34: 5G4 (VHH)
# VHH: EVQLVESGGGLVQPGGSLTLSCAGSGFIFDDYAMSWVRQAPGKGLEWVSSINWSGSHRNYADSVKGRFTISRDNAKKTLYLQMNSLKSEDTAVYYCATGWQSTTKNQNYWGQGTQVTVSS
# notes: C-term myc-His6 tag
# B35: 15G7 (VHH)
# VHH: B34 VHH with T19R, G24A, S50A, S56T, A75N, L79V, N108G
# notes: C-term myc-His6 tag
# B36: 15B7 (VHH)
# VHH: B34 VHH with T19K, G24A, S50A, L79V, K87Q, A97G, N106S, N108G
# notes: C-term myc-His6 tag
# B37: 30H9 (VHH)
# VHH: B12 VHH
# notes: C-term myc-His6 tag
# B38: 17E3 (VHH)
# VHH: EVQLVESGGGLVQAGGSLRLSCVASKMTFMRYTMGWYRQAPGKQRDLVASIDSSGGTNYADSVKGRFTISRDNAKNTVYLEMNSLTPEDTAVYYCNQGWKIVPTDRTGHGTQVTVSS
# notes: C-term myc-His6 tag
# B39: DUMMY-35GS-47D5 (bispecific antibody)
# chain: EVQLVESGGGLVQAGGSLRLSCAASGRTFRSYPMGWFRQAPGKEREFVASITGSGGSTYYADSVKGRFTISRDNAKNTVYLQMNSLRPEDTAVYSCAAYIRPDTYLSRDYRKYDYWGQGTQVTVSSGGGGSGGGGSGGGGSGGGGSGGGGSGGGGSGGGGSEVQLVESGGGLVQPGGSLRLSCAASGSIFGFNDMAWYRQAPGKQRELVALISRVGVTSSADSVKGRFTISRVNAKDTVYLQMNSLKPEDTAVYYCYMDQRLDGSTLAYWGQGTQVTVSS
# notes: control: dummy Nanobody fused N-terminally to 47D5; C-term myc-His6 tag; also called Dummy-47D5
# Target: T1, recombinant human ErbB2/Fc chimera (human, UniProt P04626 23-652)
# T1 construct: bought from R&D Systems; also called rhErbB2-Fc; rhErb2-Fc; Fc part of the bought chimera not given; not described
# Experiment: SPR (Biacore 3000), purified Nanobody over immobilised rhErbB2-Fc
row,Binder,koff [s⁻¹]
1,B1,~0.0001

# Target: T1, recombinant human ErbB2/Fc chimera
# Experiment: SPR (Biacore 3000), periplasmic extract over immobilised rhErbB2-Fc
row,Binder,koff [s⁻¹]
1,B2,0.00118
2,B3,0.00125
3,B4,0.00109
4,B5,0.00412
5,B6,0.00107
6,B7,0.00177
7,B8,0.0013
8,B9,0.00127
9,B10,0.0012
10,B11,0.00277
11,B12,0.00161
12,B13,0.00157
13,B14,0.00165
14,B15,0.00155
15,B16,0.00153

# Target: T2, Epidermal Growth Factor Receptor 2 (HER2) (human, UniProt P04626 23-1255)
# T2 construct: whole, on cells; the cell line is named under assay; also called ErbB-2; ERBB2
# Experiment: FMAT competition on SKBR3 cells, periplasmic extract
row,Binder,% blocking of Herceptin binding [%]
1,B17,> 90
2,B3,> 90
3,B18,> 90
4,B19,> 90
5,B4,> 90
6,B5,> 90
7,B20,> 90
8,B6,> 90
9,B7,> 90
10,B21,> 90
11,B22,> 90
12,B23,> 90
13,B24,> 90
14,B25,> 90
15,B26,> 90
16,B27,> 90
17,B8,> 90

row,Binder,% blocking of Herceptin binding [%]
1,B28,> 90
2,B29,> 90
3,B30,> 90
4,B9,> 90
5,B31,> 90
6,B32,> 90
7,B10,> 90
8,B33,> 90
9,B34,> 90
10,B35,> 90
11,B36,> 90
12,B12,> 90
13,B37,> 90
14,B13,> 90
15,B14,> 90
16,B16,> 90
17,B38,> 90

# Target: T1, recombinant human ErbB2/Fc chimera
# Experiment: SPR (Biacore T100), Nanobody over immobilised rhErbB2-Fc
Binder,Kd [nM],koff [s⁻¹],kon [M⁻¹ s⁻¹]
B39,3.21,0.000869,271000
